The data set addresses (Ni2+-NTA)2-Cy3-His6-AGT (O6-alkylguanine-DNA alkyltransferase) (human, UniProt P16455 1-207). Put plainly: FRET.

(Ni2+-NTA)2-Cy3-His6-AGT (O6-alkylguanine-DNA alkyltransferase), sequence (P16455 whole entry): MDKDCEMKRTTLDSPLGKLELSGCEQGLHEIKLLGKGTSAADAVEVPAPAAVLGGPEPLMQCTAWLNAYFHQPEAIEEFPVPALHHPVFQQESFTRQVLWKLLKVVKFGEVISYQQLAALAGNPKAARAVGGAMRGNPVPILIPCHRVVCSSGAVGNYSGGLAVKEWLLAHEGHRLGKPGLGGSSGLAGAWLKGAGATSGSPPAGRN

Consider GACTGACTGACTGACTGACTGACTGA (ssDNA) [FAM-DNA 26-mer], for which the “apparent K (half saturation)” value stood at 554000 M⁻¹.

The record behind these values is paper PMC2832190.
